B1: F1*; the commonest letter at each place (parent)
chain: GAGACCGCAACTGAAAAGTTGTTATCACTTGTCGTAAGACACTTTGGATGGGTTGAAGTTCTGCACGTAGAAGCAAAAGGC

The variants in this data set derive from B1. In words: fraction ligated after 30 min (ligated reads / total reads); higher = more ligase activity. To be noted: with F1*sub RNA substrate (template-directed ligation), 42 °C. The procedure, abridged: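 Templates from an oligo pool were PCR-amplified, transcribed with T7 and gel-purified to give the ribozyme variants. Ligated and unligated products were separated on gel, reverse transcribed using barcoded primers, and read on a MiSeq. A quality filter of ≥20 was applied to core bases. Fraction ligated was taken as ligated reads as a share of all reads per variant.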
Consider G47T G55C, for which the fraction ligated is 0.0359.
In the case of G47T G55A, the fraction ligated came out at 0.0777.
The same measure for G46T A56G: 0.187; for G46T A56T: 0.237; for G46T A56C: 0.136.
As to G46A A57G, the fraction ligated was determined as 0.799.
The same measure for G46A A57C: 0.793; for G46A A57T: 0.803.
On to T49G A57C, for which the fraction ligated was 0.523.
As for T49G A57T, the figure is 0.706.
Regarding T49G A57G, the fraction ligated came to 0.734.
As to T54C, the fraction ligated came to 0.846.
As for T54A, the fraction ligated turned out to be 0.828.
The same measure for T54G: 0.807; for G46C A48C: 0.621; for G46C A48T: 0.0498.
The same measure for G46C A48G: 0.191; for G47A T49C: 0.773.
In the case of G47A T49G, the fraction ligated was found to be 0.798.
As for G47A T49A, the figure is 0.806.
As for G46T G55C, the fraction ligated worked out at 0.111.
As for G46T G55A, the figure is 0.726; as for G46T G55T, 0.482; as for T49G G50A, 0.388.
As for T49G G50C, the figure is 0.0713; as for T49G G50T, 0.667.
Regarding G46T A48G, the fraction ligated is 0.352.
As for G46T A48C, the figure is 0.127.
Regarding G46T A48T, the fraction ligated worked out at 0.144.
As for G50C A56T, the figure is 0.0147; as for G50C A56G, 0.0166.
The same measure for G50C A56C: 0.00754.
As for T49G G55C, the figure is 0.136; as for T49G G55T, 0.243.
On to T49G G55A, for which the fraction ligated was 0.688.
As for T45A G46T, the figure is 0.403; as for T45G T49G, 0.0893; as for T45G T49C, 0.0508.
Take T45G T49A: the fraction ligated is 0.0341.
As for G46A G47T, the figure is 0.115.
As for G46A G47C, the figure is 0.146.
For G46A G47A, the fraction ligated was 0.804.
For T53G, the fraction ligated is 0.831.
For the variant T53C, the fraction ligated was 0.849.
In the case of T53A, the fraction ligated came out at 0.834.
The same measure for G50A G55C: 0.0427; for G50A G55T: 0.0307.
G50A G55A: the fraction ligated worked out at 0.178.
As for T45A G55C, the figure is 0.067.
T45A G55T: the fraction ligated is 0.144.
As for T45A G55A, the figure is 0.274; as for A48C T49G, 0.763.
As to A48C T49A, the fraction ligated came out at 0.555.
The same measure for A48C T49C: 0.335; for T49A A56T: 0.209.
As to T49A A56C, the fraction ligated was determined as 0.102.
For T49A A56G, the fraction ligated amounted to 0.116.
The same measure for G46C G50T: 0.165; for G46C G50C: 0.0426; for G46C G50A: 0.0524.
Consider G46T, for which the fraction ligated worked out at 0.791.
As for G46C, the figure is 0.804; as for G46A, 0.812; as for G46C G47A, 0.798.
As to G46C G47T, the fraction ligated came to 0.0897.
The same measure for G46C G47C: 0.0992.
As for T45G G50A, the figure is 0.0135.
As for T45G G50C, the fraction ligated was determined as 0.0186.
As for T45G G50T, the figure is 0.0316; as for T45A G50A, 0.0303; as for T45A G50C, 0.0158.
As for T45A G50T, the figure is 0.0542.
The same measure for T45C A56T: 0.473; for T45C A56C: 0.747; for T45C A56G: 0.569.
As for G50T, the fraction ligated was 0.743.
As for G50A, the fraction ligated was determined as 0.589.
As for G50C, the figure is 0.424; as for G47C T49C, 0.0543.
As for G47C T49G, the figure is 0.0669.
As for G47C T49A, the figure is 0.0759; as for G46A G50A, 0.0565; as for G46A G50C, 0.0754.
For G46A G50T, the fraction ligated is 0.232.

Values taken from the supplement of paper PMC6755084.
